From patent US20030236190A1 (published 2003)
Positions of bridges follow the written chain, without caps; N, C: chain ends. No end group written: not given here.

B1: RB535 (peptide)
peptide: MADYKDDDDKGSLDESFYDWFERQLGKKGGSGGSGGSGGSGSLDESFYDWFERQLGKKAAAGAPVPYPDPLEPRPG
notes: Recombinant F1-F1 dimer peptide with tags at both ends
B2: RB537 (peptide)
peptide: MADYKDDDDKGSLDESFYDWFERQLGKKGGSGGSWLDQEWAWVQCEVYGRGCPSAAAGAPVPYPDPLEPRPG
notes: Recombinant F1-F6 (Site 1-Site 2) dimer peptide with tags at both ends
B3: RB625 (peptide)
peptide: MADYKDDDDKWLDQEWAWVQCEVYGRGCPSQPPPPDITTHRADPQGSLDESFYDWFERQLGKKAAAGAPVPYPDPLEPRPG
notes: Recombinant F6-F1 dimer peptide with tags at both ends
B4: RB626 (peptide)
peptide: MADYKDEIEAEWGRVRCLVYGRCVGGGGSGGSGGSGGSGSLDESFYDWFERQLGKKAAAGAPVPYPDPLEPRPG
notes: as for B3
B5: RB538 (peptide)
peptide: MADYKDDDDKGSLDESFYDWFERQLGKKGGSGGSGGSGGSWLDQEWAWVQCEVYGRGCPSAAAGAPVPYPDPLEPRPG
notes: as for B2
B6: RB540 (peptide)
peptide: MADYKDDDDKWLDQEWAWVQCEVYGRGCPSAAAGAPVPYPDPLEPRPG
notes: Recombinant F6 monomer peptide with tags at both ends
B7: RB463 (other, not shown: large carriers)
chain: NNNNLGIEGRISEFIEGRAQPAMAFHENFYDWFVRQVSGGSFHENFYDWFVRQVSAAAGAPVPYPDPLEPRAA
notes: MBP fusion, uncleaved
B8: RB517 (peptide)
peptide: DYKDDDDKHLCVLEELFWGASLFGYCSGGGSGGSHLCVLEELFWGASLFGYCSGAAAGAPVPYPDPLEPRAA
B9: RB539 (peptide)
peptide: MADYKDDDDKWLDQEWAWVQCEVYGRGCPSGGSGGSGSLDESFYDWFERQLGKKAAAGAPVPYPDPLEPRPG
notes: Recombinant F6-F1 (Site 2-Site 1) dimer peptide with tags at both ends
B10: RB437 (other, not shown: large carriers)
chain: NNNNLGIEGRISEFIEGRAQPAMAFHENFYDWFVRQVSAAAGAPVPYPDPLEPRAA
notes: MBP fusion, uncleaved
B11: RB436 (other, not shown: large carriers)
chain: NNNNLGIEGRISEFIEGRAQPAMAFHENFYDWFVRQVSGGSGGSGGSFHENFYDWFVRQVSAAAGAPVPYPDPLEPRAA
notes: MBP fusion, uncleaved
B12: RB509 (peptide)
peptide: DYKDDDDKVRVDWLQRNANFYAWFVAELGGGSGGSGGSGGSGRVDWLQRNANFYDWFVAELGAAAGAPVPYPDPLEPRAA
B13: RB521 (peptide)
peptide: MADYKDDDDKGSLDESFYDWFERQLGKKGGSGGSGSLDESFYDWFERQLGKKAAAGAPVPYPDPLEPRPG
notes: as for B1
B14: RB622 (peptide)
peptide: MADYKDDDDKWLDQEWAWVQCEVYGRGCPSTPKPPTPPPLSADGSLDESFYDWFERQLGKKAAAGAPVPYPDPLEPRPG
notes: as for B3
B15: RB508 (peptide)
peptide: DYKDDDDKVRVDWLQRNANFYDWFVAELGGGSGGSGRVDWLQRNANFYDWFVAELGAAAGAPVPYPDPLEPRSA
B16: RB435 (other, not shown: large carriers)
chain: NNNNLGIEGRISEFIEGRAQPAMAFHENFYDWFVRQVSGGSFHENFYDWFVRQVSGGSFHENFYDWFVRQVSAAAGAPVPYPDPLEPRAA
notes: MBP fusion, uncleaved

Tests used:
[1] = target: T1, Insulin receptor prepared according to Bass et al., 1996: soluble human insulin receptor-immunoglobulin heavy … (human, UniProt P06213 28-956); assay: phage ELISA, vs IGF-1R
T1 construct: extracellular domain; Eu3+-labelled in TR-FRET; also called IR; sIR-Fc; not shown: immunoglobulin heavy chain constant domains that replace the transmembrane and i

[2] = target: T2, Soluble IGF-1R (R&D Systems, Cat. # 391-GR/CF); recombinant human IGF-1R (human, UniProt P08069 31-935); assay: phage ELISA, vs IR
T2 construct: extracellular domain; Eu3+-labelled in the TR-FRET assays; also called sIGF-1R; rhIGF-1R

[3] = target: T1, Insulin receptor prepared according to …; assay: phage ELISA vs milk
[4] = target: T2, Soluble IGF-1R (R&D Systems, Cat. # …); assay: phage ELISA vs milk
[5] = target: human insulin receptor (HIR) (human, UniProt P06213 28-1382, limits assumed); assay: HIR Kd, Table 14; competition with 125I-insulin on solubilised HIR (method of Example 3, not restated for this table)

Row | Binder | IR/IGF-1R Comparison [1] [ratio] | IGF-1R/IR Comparison [2] [ratio] | Ratio over Background [3] [fold] | Ratio over Background [4] [fold] | Kd [5] [nM]
1 | VGYQGQGDENFYDWFIRQVSGRLGVQ [H2CA-4-F5-IGFR] | 0.1 | 12.3 | 0.8 | 9.7 | –
2 | MQNDDGSLDESFYDWFERQLGEEEGGDHHHHHHPG (F1 monomer with a His tag) [RB570] | – | – | – | – | 25
3 | B1 | – | – | – | – | ~100
4 | YRGMLVLGRSSDGAGKVAFERPARIGQTVFAVNFYDWFV [A6L-0-E6-IR] | 0.1 | 17 | 1.8 | 31 | –
5 | B2 | – | – | – | – | 0.059
6 | B3 | – | – | – | – | 0.38
7 | SRAKVEAEMPDSGDPFYHKLSELLASG [B6Hα-1-A3-IR] | 0.3 | 3.3 | 0.8 | 2.6 | –
8 | B4 | – | – | – | – | 0.3
9 | LSVALSFYDALGQLVAGEGRW [20E2A-3-A12-IGFR] | 0.3 | 3.9 | 1.1 | 4.3 | –
10 | GCAVVEEAERSRGDPFYHKLSELIQGC (disulfide 2-27 (inferred)) [B6Hα-3-E7-IR] | 0.2 | 4.3 | 1.3 | 5.6 | –
11 | MQNDDGSLDESFYDWFERQLGHHHHHHPG (F1 monomer with a His tag) [RB596] | – | – | – | – | 94
12 | GGTKAVAKVGTRDDPFYHKLSELLQGS [H6Hα-4-G8-IR] | 0.3 | 3.6 | 1.7 | 6.1 | –
13 | SAAQLFFQESFYDWFLRQVAESSQPN [H2CA-4-F11-IGFR] | 0.1 | 6.7 | 1 | 6.8 | –
14 | B5 | – | – | – | – | 0.017
15 | B6 | – | – | – | – | ~100
16 | AETSVQVGWIRLQSVWPGEHWNTVDPFYHKLSELLRGSGA [B6L-4-D7-IR] | 0.3 | 3.4 | 1.4 | 4.8 | –
17 | GIISQSCPESFYDWFAGQVSDPWWCW [H2CA-4-G9-IGFR] | 0.1 | 16 | 0.6 | 9.5 | –

Row | Binder | IR/IGF-1R Comparison [1] [ratio] | IGF-1R/IR Comparison [2] [ratio] | Ratio over Background [3] [fold] | Ratio over Background [4] [fold] | Kd [5] [nM]
18 | B7 | – | – | – | – | 960
19 | SRVAATKEKRPSDDPFYHKLSELLQGS [B6Hα-3-F7-IR] | 0.3 | 3.1 | 1 | 3.1 | –
20 | B8 | – | – | – | – | 6000
21 | VGRASGFPENFYDWFGRQLSLQSGEQ [H2CA-4-H6-IGFR] | 0.1 | 14.6 | 0.7 | 10.5 | –
22 | B9 | – | – | – | – | 0.7
23 | B10 | – | – | – | – | 8300
24 | B11 | – | – | – | – | 410
25 | B12 | – | – | – | – | 55
26 | MMVVDGFYDALHQLVVAQSLG [20E2A-3-D10-IGFR] | 0.3 | 3.9 | 1.8 | 6.9 | –
27 | SACQFDCHENFYDWFARQVSGGAAYG (not fully specified (bridges); cysteine pairing not given here) [H2CA-4-H8-IGFR] | 0.1 | 9.4 | 1 | 9.2 | –
28 | MGSLDESFYDWFERQLGEEEGGDHHHHHHPG (F1 monomer with a His tag) [RB569] | – | – | – | – | 210
29 | B13 | – | – | – | – | 44
30 | B14 | – | – | – | – | 1
31 | B15 | – | – | – | – | 150
32 | GCEVIVEEGDSADPFYHKLSELCQGS (disulfide 2-23 (inferred)) [B6Hα-2-D1-IR] | 0.2 | 4.2 | 1.3 | 5.4 | –
33 | B16 | – | – | – | – | 2000
